Assay results: the Immune Epitope Database (IEDB)

Legend:
Test in all cases: IEDB peptide-MHC binding, purified MHC/competitive/radioactivity; filed as Kd, often an IC50 or EC50 that approximates it; ≥ and ≤ were set here for values at or beyond the usual limits of such assays
[1] = biological target: HLA-A*03:01
[2] = biological target: HLA-A*11:01
[3] = biological target: HLA-A*31:01
[4] = biological target: HLA-A*33:01
[5] = biological target: HLA-A*68:01
[6] = source organism: Vaccinia virus WR
[7] = source organism: Mammarenavirus lassaense
[8] = source organism: Dengue virus 4 Philippines/H241/1956
[9] = source organism: SARS coronavirus Tor2
[10] = source organism: Mammarenavirus guanaritoense
[11] = source organism: Lassa virus Josiah
[12] = source organism: Dengue virus 3 Martinique/1243/1999
[13] = source organism: Dengue virus 2 Jamaica/1409/1983
[14] = source organism: Lymphocytic choriomeningitis virus (strain Armstrong)
[15] = source organism: Dengue virus 1 Singapore/S275/1990
[16] = source organism: Mammarenavirus whitewaterense
[17] = source organism: Dengue virus 1 Brazil/97-11/1997
[18] = source organism: Dengue virus 2 Peru/IQT2913/1996

## ISIISIRPR
[1]; [6]
  Kd: ≥ 24100 nM
[2]; [6]
  Kd: 263 nM
[3]; [6]
  Kd: 3.69 nM
[4]; [6]
  Kd: 0.701 µM
[5]; [6]
  Kd: 43.4 nM

## ISSVLTILYY
[1]; [6]
  Kd: 561 nM
[2]; [6]
  Kd: 155 nM
[3]; [6]
  Kd: 5890 nM
[4]; [6]
  Kd: 1.43 µM
[5]; [6]
  Kd: 162 nM

## ITDNGPMPY
[1]; [6]
  Kd: 5020 nM
[2]; [6]
  Kd: 7.31 nM
[3]; [6]
  Kd: 1200 nM
[4]; [6]
  Kd: 1.6 µM
[5]; [6]
  Kd: 2470 nM

## ITFFQEVPH
[1]; [7]
  Kd: 10800 nM
[2]; [7]
  Kd: 197 nM
[3]; [7]
  Kd: 8040 nM
[4]; [7]
  Kd: ≥ 77.7 µM
[5]; [7]
  Kd: 72.5 nM

## ITPTIEDDK
[1]; [6]
  Kd: ≥ 78000 nM
[2]; [6]
  Kd: 6560 nM
[3]; [6]
  Kd: ≥ 77900 nM
[4]; [6]
  Kd: ≥ 77.7 µM
[5]; [6]
  Kd: 528 nM

## IVPEFAKQY
[1]; [6]
  Kd: ≥ 28200 nM
[2]; [6]
  Kd: 11800 nM
[3]; [6]
  Kd: ≥ 21300 nM
[4]; [6]
  Kd: ≥ 42.9 µM
[5]; [6]
  Kd: 9120 nM

## IVTDLENRLK
[1]; [6]
  Kd: 25.4 nM
[2]; [6]
  Kd: 309 nM
[3]; [6]
  Kd: 548 nM
[4]; [6]
  Kd: ≥ 26.7 µM
[5]; [6]
  Kd: 310 nM

## IVTFRERYSY
[1]; [6]
  Kd: 469 nM
[2]; [6]
  Kd: 144 nM
[3]; [6]
  Kd: 194 nM
[4]; [6]
  Kd: 14.3 µM
[5]; [6]
  Kd: 1020 nM

## IVTVTTKDY
[1]; [6]
  Kd: 1930 nM
[2]; [6]
  Kd: ≥ 32600 nM
[3]; [6]
  Kd: 8980 nM
[4]; [6]
  Kd: 18.4 µM
[5]; [6]
  Kd: 1690 nM

## KAPNVISSK
[1]; [6]
  Kd: 1.89 nM
[2]; [6]
  Kd: 7.02 nM
[3]; [6]
  Kd: 175 nM
[4]; [6]
  Kd: ≥ 22.6 µM
[5]; [6]
  Kd: 155 nM

## KFQPESPAR
[3]; [8]
  Kd: 64.2 nM

## KFYGPFVDR
[1]; [9]
  Kd: 7680 nM
[2]; [9]
  Kd: 1420 nM
[3]; [9]
  Kd: 0.454 nM
[4]; [9]
  Kd: 2.04 µM
[5]; [9]
  Kd: 3260 nM

## KGLGHDFLR
[3]; [10]
  Kd: 0.134 nM
[4]; [10]
  Kd: ≥ 77.7 µM
[5]; [10]
  Kd: ≥ 21600 nM

## KISVQYNLSH
[2]; [11]
  Kd: 203 nM

## KLSSIKSKSR
[1]; [6]
  Kd: 514 nM
[2]; [6]
  Kd: 9910 nM
[3]; [6]
  Kd: 104 nM
[4]; [6]
  Kd: ≥ 27.7 µM
[5]; [6]
  Kd: 18600 nM

## KQIRSAAKK
[1]; [9]
  Kd: 43.1 nM
[2]; [9]
  Kd: 73.7 nM
[3]; [9]
  Kd: 1080 nM
[4]; [9]
  Kd: ≥ 77.7 µM
[5]; [9]
  Kd: 1330 nM

## KQMYKTPTLK
[1]; [9]
  Kd: 2.31 nM
[2]; [9]
  Kd: 17.5 nM
[3]; [9]
  Kd: 95.3 nM
[4]; [9]
  Kd: 11.4 µM
[5]; [9]
  Kd: 8220 nM

## KSGAIKVLK
[1]; [12]
  Kd: 104 nM
[2]; [12]
  Kd: 150 nM
[3]; [12]
  Kd: 8.84 nM

## KTKISVEKIK
[1]; [6]
  Kd: 4200 nM
[2]; [6]
  Kd: 275 nM
[3]; [6]
  Kd: 818 nM
[4]; [6]
  Kd: ≥ 70 µM
[5]; [6]
  Kd: ≥ 24700 nM

## KTVWFVPSIK
[1]; [13]
  Kd: 6.64 nM
[2]; [13]
  Kd: 59.2 nM

## KVAGFAKFLK
[1]; [9]
  Kd: 8.52 nM
[2]; [9]
  Kd: 10.8 nM
[3]; [9]
  Kd: 31.8 nM
[4]; [9]
  Kd: 3.18 µM
[5]; [9]
  Kd: 11.8 nM

## KVILSEISFH
[1]; [14]
  Kd: 1370 nM
[2]; [14]
  Kd: 812 nM
[3]; [14]
  Kd: 2070 nM
[4]; [14]
  Kd: 16.4 µM
[5]; [14]
  Kd: 12700 nM

## LAMGIMILK
[1]; [15]
  Kd: 26.3 nM
[2]; [15]
  Kd: 9.52 nM
[5]; [15]
  Kd: 30.6 nM

## LFYVSSIFLH
[1]; [16]
  Kd: 6040 nM
[2]; [16]
  Kd: 2240 nM
[3]; [16]
  Kd: 319 nM
[4]; [16]
  Kd: 0.0737 µM
[5]; [16]
  Kd: 980 nM

## LILCFTIKR
[1]; [9]
  Kd: 1400 nM
[2]; [9]
  Kd: 231 nM
[3]; [9]
  Kd: 9010 nM
[4]; [9]
  Kd: 7.03 µM
[5]; [9]
  Kd: 1410 nM

## LLHCVTESYK
[1]; [6]
  Kd: 14.7 nM
[2]; [6]
  Kd: 128 nM
[3]; [6]
  Kd: 207 nM
[4]; [6]
  Kd: 3.27 µM
[5]; [6]
  Kd: 23.6 nM

## LLRALRLTK
[1]; [9]
  Kd: 24.4 nM
[2]; [9]
  Kd: 3860 nM
[3]; [9]
  Kd: 851 nM
[4]; [9]
  Kd: ≥ 23.9 µM
[5]; [9]
  Kd: ≥ 59900 nM

## LSCTKNNSHH
[1]; [11]
  Kd: ≥ 70000 nM
[2]; [11]
  Kd: ≥ 63800 nM
[3]; [11]
  Kd: ≥ 70000 nM
[4]; [11]
  Kd: ≥ 70 µM
[5]; [11]
  Kd: ≥ 37400 nM

## LSSKGLACY
[1]; [6]
  Kd: 777 nM
[2]; [6]
  Kd: 5490 nM
[3]; [6]
  Kd: 13300 nM
[4]; [6]
  Kd: ≥ 77.7 µM
[5]; [6]
  Kd: 8340 nM

## LSYVIGLLPH
[1]; [10]
  Kd: 2260 nM
[2]; [10]
  Kd: ≥ 35800 nM
[3]; [10]
  Kd: 8940 nM
[4]; [10]
  Kd: ≥ 70 µM
[5]; [10]
  Kd: ≥ 70100 nM

## MALFLEEMLR
[3]; [13]
  Kd: 19.6 nM
[4]; [13]
  Kd: 0.0272 µM
[5]; [13]
  Kd: 11.8 nM

## MFAVGLLFR
[3]; [17]
  Kd: ≥ 66700 nM
[4]; [17]
  Kd: 0.00105 µM
[5]; [17]
  Kd: 61.9 nM

## MGANFRADR
[5]; [17]
  Kd: 17 nM

## MSYSMCTGK
[1]; [13]
  Kd: 4.21 nM
[2]; [13]
  Kd: 34.2 nM
[5]; [13]
  Kd: 81.8 nM

## NKKPRICTR
[4]; [17]
  Kd: 2.97 µM

## QTVGPWHLGK
[2]; [8]
  Kd: 37.8 nM

## RMLINRFTMR
[1]; [18]
  Kd: 86.6 nM
[3]; [18]
  Kd: 14.3 nM
[4]; [18]
  Kd: 0.162 µM

## RTLGRNKRPR
[3]; source organism: Dengue virus 3 Sri Lanka/1266/2000
  Kd: 6.81 nM

## RVSTGSQLAK
[1]; [17]
  Kd: 75.5 nM
[2]; [17]
  Kd: 75.7 nM

## SLLGSALLK
[1]; [8]
  Kd: 3.47 nM
[2]; [8]
  Kd: 21.3 nM

## SMFEPEREK
[1]; [13]
  Kd: 83.6 nM
[2]; [13]
  Kd: 1140 nM

## SMLNIMNRR
[3]; [17]
  Kd: 1.54 nM
[4]; [17]
  Kd: 0.0683 µM

## TLITGNMSFR
[4]; [13]
  Kd: 0.289 µM
[5]; [13]
  Kd: 12.3 nM

## VLLGSFGCK
[1]; [17]
  Kd: 11.9 nM

## VSTVQQLTK
[2]; [13]
  Kd: 604 nM

## VYTQLCDHR
[4]; [12]
  Kd: 1.9 µM
